Measurements: paper PMC10104587 (Proceedings of the National Academy of Sciences of the …, 2023)

B1: CNGA1 subunit of the bovine rod CNG channel (natural protein, UniProt Q00194 1-690, looked up)
chain: MKKVIINTWHSFVNIPNVVGPDVEKEITRMENGACSSFSGDDDDSASMFEESETENPHARDSFRSNTHGSGQPSQREQYLPGAIALFNVNNSSNKEQEPKEKKKKKKEKKSKPDDKNENKKDPEKKKKKEKDKDKKKKEEKGKDKKEEEKKEVVVIDPSGNTYYNWLFCITLPVMYNWTMIIARACFDELQSDYLEYWLAFDYLSDVVYLLDMFVRTRTGYLEQGLLVKEERKLIDKYKSTFQFKLDVLSVIPTDLLYIKFGWNYPEIRLNRLLRISRMFEFFQRTETRTNYPNIFRISNLVMYIIIIIHWNACVYFSISKAIGFGNDTWVYPDVNDPDFGRLARKYVYSLYWSTLTLTTIGETPPPVRDSEYFFVVADFLIGVLIFATIVGNIGSMISNMNAARAEFQARIDAIKQYMHFRNVSKDMEKRVIKWFDYLWTNKKTVDEREVLKYLPDKLRAEIAINVHLDTLKKVRIFADCEAGLLVELVLKLQPQVYSPGDYICKKGDIGREMYIIKEGKLAVVADDGITQFVVLSDGSYFGEISILNIKGSKAGNRRTANIKSIGYSDLFCLSKDDLMEALTEYPDAKGMLEEKGKQILMKDGLLDINIANAGSDPKDLEEKVTRMESSVDLLQTRFARILAEYESMQQKLKQRLTKVEKFLKPLIDTEFSAIEGSGTESGPTDSTQD
B2: CNGB1 subunit of the bovine rod CNG channel (natural protein)
chain: MLGWVQRVLPQPPGTPQKTKQEEEGTEPEPELEPKPETAPEETELEEVSLPPEEPCVGKEVAAVTLGPQGTQETALTPPTSLQAQVSVAPEAHSSPRGWVLTWLRKGVEKVVPQPAHSSRPSQNIAAGLESPDQQAGAQILGQCGTGGSDEPSEPSRAEDPGPGPWLLRWFEQNLEKMLPQPPKISEGWRDEPTDAALGPEPPGPALEIKPMLQAQESPSLPAPGPPEPEEEPIPEPQPTIQASSLPPPQDSARLMAWILHRLEMALPQPVIRGKGGEQESDAPVTCDVQTISILPGEQEESHLILEEVDPHWEEDEHQEGSTSTSPRTSEAAPADEEKGKVVEQTPRELPRIQEEKEDEEEEKEDGEEEEEEGREKEEEEGEEKEEEEGREKEEEEGEKKEEEGREKEEEEGGEKEDEEGREKEEEEGRGKEEEEGGEKEEEEGRGKEEVEGREEEEDEEEEQDHSVLLDSYLVPQSEEDRSEESETQDQSEVGGAQAQGEVGGAQALSEESETQDQSEVGGAQDQSEVGGAQAQGEVGGAQEQDGVGGAQDQSTSHQELQEEALADSSGVPATEEHPELQVEDADADSRPLIAEENPPSPVQLPLSPAKSDTLAVPGSATGSLRKRLPSQDDEAEELKMLSPAASPVVAWSDPTSPQGTDDQDRATSTASQNSAIINDRLQELVKLFKERTEKVKEKLIDPDVTSDEESPKPSPAKKAPEPAPEVKPAEAGQVEEEHYCEMLCCKFKRRPWKKYQFPQSIDPLTNLMYILWLFFVVLAWNWNCWLIPVRWAFPYQTPDNIHLWLLMDYLCDLIYLLDITVFQMRLQFVRGGDIITDKKEMRNNYVKSQRFKMDMLCLLPLDLLYLKFGVNPLLRLPRCLKYMAFFEFNNRLESILSKAYVYRVIRTTAYLLYSLHLNSCLYYWASAYEGLGSTHWVYDGVGNSYIRCYYWAVKTLITIGGLPDPRTLFEIVFQGLNYFTGVFAFSVMIGQMRDVVGAATAGQTYYRSCMDSTVKYMNFYKIPRSVQNRVKTWYEYTWHSQGMLDESELMVQLPDKMRLDLAIDVNYSIVSKVALFQGCDRQMIFDMLKRLRSVVYLPNDYVCKKGEIGREMYIIQAGQVQVLGGPDGKSVLVTLKAGSVFGEISLLAVGGGNRRTANVVAHGFTNLFILDKKDLNEILVHYPESQKLLRKKARRMLRNNNKPKEKSVLILPPRAGTPKLFNAALAAAGKMGAKGGRGGRLALLRARLKELAALEAAARQQQLLEQAKSSEDAAVGEEGSASPEQPPRPEPPAPEAPAPEPTAPEPLAPEAPAPEAPAPSSPPPASQERPEGDKDAARPEEHPVRIHVTLGPDPSEQILLVEVPEKQEEKEKKEEETEEKEEGEEARKEKEEE

What was measured:
[1] = target: B2; experiment: cryo-EM structure
cryo-EM structure = target: the molecule itself; experiment: cryo-EM structure
bovine calmodulin = bovine calmodulin (bovine, UniProt P62157 1-149); experiment: limited proteolysis-coupled mass spectrometry

Binder | binding result [1] | binding result (cryo-EM structure) | binding result (bovine calmodulin)
B1 | binds | binds | binds
B2 |  |  | binds
